Biological target: phosphorylated PhoP-His (recombinant N-terminal His-tag PhoP protein of Photorhabdus luminescens TT01, phosphorylated in vitro with acetyl phosphate) (Photorhabdus luminescens TT01)
Assay: Mn2+-Phos-tag SDS-PAGE; 4 ug purified PhoP-His incubated in vitro with 50 mM acetyl phosphate (lane 2) or without (lane 1) in the EMSA buffer; precast 12.5% polyacrylamide Mn2+-Phos-tag gel run at 4°C and 150 V; Coomassie stain

“phosphorylated PhoP-His (recombinant N-terminal His-tag PhoP protein of Photorhabdus luminescens TT01, phosphorylated in vitro with acetyl phosphate) (natural protein)” showed a stoichiometry N of 2.

From article PMC4198210
